This is an account of results in US20220334106, “CONJUGATE” (DENSO CORPORATION, published 2022).

This data set has as its target T1, alpha-amylase (UniProt P0DUB6 P0DUB6:16-511).
T1 sequence: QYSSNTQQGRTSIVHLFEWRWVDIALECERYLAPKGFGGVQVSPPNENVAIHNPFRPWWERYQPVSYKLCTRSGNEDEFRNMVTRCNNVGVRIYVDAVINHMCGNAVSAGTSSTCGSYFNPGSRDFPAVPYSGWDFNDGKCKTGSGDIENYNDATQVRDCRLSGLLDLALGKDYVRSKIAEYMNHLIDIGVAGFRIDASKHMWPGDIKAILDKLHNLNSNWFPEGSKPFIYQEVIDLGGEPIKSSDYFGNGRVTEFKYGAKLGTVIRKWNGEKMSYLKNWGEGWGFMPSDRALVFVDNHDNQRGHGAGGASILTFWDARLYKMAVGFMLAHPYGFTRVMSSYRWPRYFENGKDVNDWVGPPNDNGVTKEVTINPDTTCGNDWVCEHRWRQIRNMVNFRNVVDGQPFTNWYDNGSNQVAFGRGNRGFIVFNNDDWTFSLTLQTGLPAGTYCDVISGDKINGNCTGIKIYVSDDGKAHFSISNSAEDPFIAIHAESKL
The experiment in a line: ELONA. The conditions noted are these: tags: Lee Biosolutions 120-17.

B1: DNA aptamer to SARS-CoV-2 spike RBD, alkaline phosphatase conjugate (ssDNA)
DNA: CAGCACCGACCTTGTGCTTTGGGAGTGCTGGTCCAAGGGCGTTAATGGACA
modifications: 5' biotin via C6 spacer
On to B1, for which the binding result is recorded as “no binding”.
